Data from the nanobody polyreactivity screen of Harvey et al. (2022).

Experiment: yeast display, Sf9 membrane polyspecificity reagent, FACS + sequencing; frameworks hold sequencing errors
How it was run: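 A synthetic nanobody library was expressed on Saccharomyces cerevisiae BJ5465 by galactose induction for 36–48 hours. The library was stained for 1 hour at 4 °C with 10% biotinylated, detergent-solubilized Sf9 membrane reagent and enriched with streptavidin microbeads before FACS. Low and high (top ~1%) gates were set on anti-HA fluorescence for expression and streptavidin fluorescence for reagent binding, and each polyreactivity label reflects the gate of origin.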

| Sequence | polyreactivity (PSR sort gate) |
| --- | --- |
| QVQLVESGGGLVQAGGSLRLSCAASGRIFDYYDMGWYRQAPVKERELVAAITSSGTSTYYADSVKGRFTISRDNAKNTVYLQMNSLKPEDTAVYYCNARSIRPWGENGFWGQGTQVTVSS | high polyreactivity |
| QVQLVESGGGLVQAGGSLRLSCAASGRIFDYYPKGWYRQAPGKERELVAAISVRGGSTYYADSVKGRFTISRDNAKNTVYLQMNSLKPEDTAVYYCAARSWPHRTYYYWGQGTQVTVSS | high polyreactivity |
| QVQLVESGGGLVQAGGSLRLSCAASGRIFEDYAMGWYRQAPGKERELVARISSGDSTNYADSVKGRFTISRDNAKNTVYLQMNSLKPEDTAVYYCNADRGDLYELRGSGYLDGYWGQGTQVTVSS | low polyreactivity |
| QVQLVESGGGLVQAGGSLRLSCAASGRIFEFNAMGRYIQAPGKERELVARISYSGGSTYYADSLKGRFTISRDNAKNTVYLQMNSLKPEDTAVYYCAAKPSRYFYNAWGYRQVYQYDYWGQGTQVTVSS | high polyreactivity |
| QVQLVESGGGLVQAGGSLRLSCAASGRIFEHYPMGWYRPAPGKERELVAAISRSGGRTYYADSVKGRFTISRDNAKNTVTLQMNSVKPEDTEVDYCAAVGVYWYVYPHEYDYWGQGSQVTVSS | high polyreactivity |
| QVQLVESGGGLVQAGGSLRLSCAASGRIFEKYAMGWYRQAPGKERELVAAISYSGGSTYYADSVKGRFTISRDNAKNTVYLQMNSLKPEDTAVYYCARYSRTQAYDYWGQGTQVTVSS | high polyreactivity |
| QVQLVESGGGLVQAGGSLRLSCAASGRIFENNAMGWYRPAPGKERELVAAITSGGSTYYADSVKGRFTISRDNAKNTVYLQMNSLKPEDTAVYYCNVTFRVDPWTRTGYDYWGQGTQVTVSS | high polyreactivity |
| QVQLVESGGGLVQAGGSLRLSCAASGRIFERYAMGWYRQAPGKERELVAAISGGGSTYYADSVKGRFTISRDNAKNTVYLQMNSLTPEDTAFYYCNTRGNSRMDYWGQGTQVTVSS | high polyreactivity |
| QVQLVESGGGLVQAGGSLRLSCAASGRIFEVYTMGWYRQAPGKERELVAAIDRSTGSTYYADSVKGRFTISRDNAKNTVYLQMHSLKPEDTAVYYCAARGTFLGTRPLGRFDYWGQGTQVTVSS | low polyreactivity |
| QVQLVESGGGLVQAGGSLRLSCAASGRIFEYAMGWYRQAPGKERELVAGITRSSSTNYADSVKGRFTISRDNAKNTVYLQKNSLKPEDTAVYYCNAESRSWYLYHYDYWGQGTQVTVSS | low polyreactivity |
| QVQLVESGGGLVQAGGSLRLSCAASGRIFFGYAMGWYRQAPGKERELVATISYNDTSTYYADSVKGRFTISRDNAKNTVYLQMNSLKPEDTAVYYCAKSLGAPASDDYWGQGTQVTVSS | low polyreactivity |
| QVQLVESGGGLVQAGGSLRLSCAASGRIFFHYAMGWYRQPPGKERELVAVISSSGGITYYADSVKGRFTISRDNAKNTVYLQMNSLKPEDTAVYYCNTVPRPFDRYGYWGQGTQVTVSS | low polyreactivity |
| QVQLVESGGGLVQAGGSLRLSCAASGRIFFNYAMGWYSQAPGKERELVAAIRGGGSTYADSVKGRFTISRDNAKNTVYLQLNSLKPADTAVYYCAARYSGSPYHTRRYYYWGQGTQVTVSS | high polyreactivity |
| QVQLVESGGGLVQAGGSLRLSCAASGRIFFPNPMGWYRQAPGKDREFVAGITVSGGSTYYADSVKGRFTISRDNAKNTVYFQMNSLKPEDTAVYYCGAYWAQGTRYEYRLNYWGQGTLVTVSS | low polyreactivity |
| QVQLVESGGGLVQAGGSLRLSCAASGRIFFRYVMGWYRQAPGKERELVAAISSGGRTYYADSVKGRFTISRDNAKNTVYLQMNSLKPEDTAVYYCAADLLLYSSQDNDYWGQGTQVTVSS | low polyreactivity |
| QVQLVESGGGLVQAGGSLRLSCAASGRIFFSNAMGWYRQAQGKEREMVASITGGDDTNYADSVKGRFTISRDNAKNTVYLQMNSLKPEDTAVYYCAARAIPSYRWFYRFAPKYDYWGQGTQVTVSS | low polyreactivity |
